These results are taken from patent CN113402607A (BEIJING EASTERN BIOTECH CO LTD, dated 2021).

The term IC50 denotes the midpoint of a concentration-inhibition curve. Higher therefore signals a need for much substance.

For test [1], the target named is LAP-TGFβ1抗原 (coated antigen) (UniProt P01137 30-390, limits assumed). Nature of the test: competition ELISA on coated LAP-TGFβ1; competitor biotin-labelled 28G11 at 1 μg/ml. (In general: An ELISA detects its analyte on a solid surface through an enzyme-linked reagent.)
Chain of LAP-TGFβ1抗原 (coated antigen) (P01137 30-390 limits assumed): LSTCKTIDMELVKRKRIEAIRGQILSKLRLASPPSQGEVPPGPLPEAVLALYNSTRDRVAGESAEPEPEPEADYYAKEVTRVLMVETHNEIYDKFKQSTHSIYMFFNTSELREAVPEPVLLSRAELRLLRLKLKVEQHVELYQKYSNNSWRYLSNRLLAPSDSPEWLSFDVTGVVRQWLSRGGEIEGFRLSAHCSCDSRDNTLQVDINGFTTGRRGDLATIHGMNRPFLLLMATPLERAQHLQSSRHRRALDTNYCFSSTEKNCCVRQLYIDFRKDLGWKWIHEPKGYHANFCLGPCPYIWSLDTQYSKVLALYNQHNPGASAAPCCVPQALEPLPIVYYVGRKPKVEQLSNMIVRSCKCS
Test [2] has as its target LAP-TGFβ1 overexpressed on cells (过表达LAP-TGFβ1的CHO细胞) (UniProt P01137 30-390, limits assumed). Nature of the test: cell-based or functional assay.

Chain of LAP-TGFβ1 overexpressed on cells (过表达LAP-TGFβ1的CHO细胞) (P01137 30-390 limits assumed): as above

B1: 抗LAP单克隆抗体 A-1 (全抗, mouse IgG2a / mouse Ck) (antibody, V domains shown)
VH: EVQLEQSGPELKKPGETVKISCKASGYTFTSYGMNWVKQAPGKALKWMGWINTYTGEPTYADDFKGRFAYSLEATANTAYLQIYNLKNEDTATYFCARSGRYTRPLYYIMDFWGQGTSVTVSS
VL: not shown
notes: Full antibody made in HEK293E from vector pTSE; also called A-1抗体
Turning to B1, the IC50 in test [1] is 0.0972 µg/mL. Also, in test [2], the “IC50(μg/ml), 抑制细胞表面TGFβ1的释放 (PAI-LUC Mv.1.lu reporter cells, luciferase)” value stood at 0.741 µg/mL.

B2: 抗LAP单克隆抗体 A-2 (全抗, mouse IgG2a / mouse Ck) (antibody, V domains shown)
VH: EVQLEESGAELVRSGASVKLSCTASGFNFNDYYMHWVKQRPEQGLEWIGWIDPENGDTEYAPKFQVKATMTADTSSNTAYLHLSSLASEDTAVYYCNTPTEDMDYWGQGTSVTVSS
VL: DIVMTQSPSSLAVSAGEKVTMSCKSSQSLFNSRTRKNYLAWYQQKPGQSPKLLIYWASTRGSGVPDRFTGSGSGTDFTLTISSVQAEDLAVYYCKQSYNLLTFGAGTKLELKA
notes: Full antibody made in HEK293E from vector pTSE
In turn, B2 returned an IC50 in test [1] of 0.0764 µg/mL.

B3: 抗LAP单克隆抗体 A-6 (全抗, mouse IgG2a / mouse Ck) (antibody, V domains shown)
VH: QVKLQESGPELVKPGASVKISCKASGYTFTDYNMHWVKQSHGKSLEWIGYFYPYNGGTGYKQKFKSKATLTVDNSSSTAYMELRSLTSEDSAVYYCARNHYYYYAMDYWGQGTSVTVSS
VL: DIVMTQTPSSLAVSAGEKVTMSCKSSQSLLNSRTRKNYLAWYQQKPGQSPKLLIYWASTRESGVPDRFTGSGSGTDFTLTISSVQAEDLAVYYCKQSYNLPWTFGGGTKLEIKA
notes: as for B2
In test [1], B3 yielded an IC50 of 0.0557 µg/mL.

B4: 抗LAP单克隆抗体 A-5 (全抗, mouse IgG2a / mouse Ck) (antibody, V domains shown)
VH: EVQLQQSGAVLVRPGDSVKLSCKASGYSFTRSWINWVKQRPGQGLEWIGNIYPSDSYTNYNQKFKDKATLTVDKSSSTAYMQLRSPTSEDSAVYYCTNYYLYYFDYWGQGTTLTVSS
VL: DIVLTQSPSSLAVSTGEKVTMSCKSSQSLLNSRTRKSYLAWYQQKPGQSPKLLIYWTSIRESGVPDRFTGNGSGTDFTLTISSVQAEDLAVYYCKQSYNLFTFGGGTKLEMKR
notes: as for B2
In test [1], B4 gave an IC50 of 0.0526 µg/mL. The “IC50(μg/ml), 抑制细胞表面TGFβ1的释放 (PAI-LUC Mv.1.lu reporter cells, luciferase)” value in test [2] amounted to 1.69 µg/mL.

B5: 抗LAP单克隆抗体 A-4 (全抗, mouse IgG2a / mouse Ck) (antibody, V domains shown)
VH: EVKLQESGPGLVAPSQSLSITCTVSGFSLTTYGVSWVRQPPGKGLEWLGIIWGDGTTIYQSGLISRLSISKDDSKSQVFLKLSSLQTDDTATYYCAKHYFVMDYWGQGTSVTVSS
VL: DIVLTQSPSSLAVSAGEKVTMNCKSSQSLLNSRIRKNYLAWYQQKPGQSPKLLIYWASTRESGVPDRFTGSGSGTDFTLTISSVQAEDLAVYYCKQSYNLWTFGGGTKLEIKA
notes: as for B2
B5 returned an IC50 in test [1] of 0.00805 µg/mL.

B6: 抗LAP单克隆抗体 A-3 (全抗, mouse IgG2a / mouse Ck) (antibody, V domains shown)
VH: EVKLQESGAELVMPGASVKMSCKASGYTFTDYWMHWVKQRPGQGLEWIGAIDTSDSYTSYNQKFKGKATLTVDESSSTAYMQLSSLTSEDSAVYYCARKALSGYFDVWGAGTTVTVSS
VL: DIVLTQTPSSLSASLGGKVTITCKASQDIYKYIAWYQHKPGKGPRLLIHYTSTLQPGIPSRFSGSGSGRDYSFSISNLEPEDIATYYCLQYDNLRTFGGGTKLEIKA
notes: as for B2
B6 had an IC50 in test [1] of 0.00695 µg/mL.
